# Assay results reported in the Immune Epitope Database (IEDB).
# pIC50, pKd: −log10 of the molar value.
# Columns and labels:
# HLA-A*29:02 [1] = assay: IEDB peptide-MHC binding, purified MHC/competitive/fluorescence; filed as Kd, often an IC50 or EC50 that approximates it; ≥ and ≤ were set here for values at or beyond the usual limits of such assays
# HLA-A*01:01 = assay: IEDB peptide-MHC binding, purified MHC/direct/fluorescence; filed as Kd, often an IC50 or EC50 that approximates it; ≥ and ≤ were set here for values at or beyond the usual limits of such assays
# HLA-A*02:01 [2] = assay: as above
# HLA-A*03:01 [3] = assay: as above
# HLA-A*11:01 [4] = assay: as above
# HLA-A*29:02 [5] = assay: as above
# HLA-A*31:01 = assay: as above
# HLA-A*69:01 [6] = assay: as above
# HLA-B*08:02 = assay: as above
# HLA-B*15:01 [7] = assay: as above
# HLA-B*18:01 [8] = assay: as above
# HLA-B*27:05 = assay: as above
# HLA-B*40:01 = assay: as above
# HLA-B*44:02 = assay: as above
# HLA-B*46:01 [9] = assay: as above
# HLA-B*57:01 [10] = assay: as above
# HLA-B*58:01 [11] = assay: as above
# HLA-A*03:01 [12] = assay: IEDB peptide-MHC binding, purified MHC/competitive/fluorescence; ≥ and ≤ were set here for values at or beyond the usual limits of such assays
# HLA-A*24:02 = assay: as above
# HLA-B*15:01 [13] = assay: as above
# HLA-A*02:01 [14] = assay: as above
# HLA-A*02:01 [15] = assay: IEDB peptide-MHC binding, purified MHC/competitive/fluorescence; filed as Kd, often an IC50 or EC50 that approximates it; ≥ and ≤ were set here for values at or beyond the usual limits of such assays
# HLA-B*15:01 [16] = assay: as above; conditions: source organism: Shigella flexneri 5 str. 8401
# HLA-B*58:01 [17] = assay: as above
# HLA-B*07:02 = assay: IEDB peptide-MHC binding, purified MHC/direct/fluorescence; filed as Kd, often an IC50 or EC50 that approximates it; ≥ and ≤ were set here for values at or beyond the usual limits of such assays; conditions: source organism: West Nile virus
# HLA-B*08:01 = assay: as above; conditions: source organism: West Nile virus
# HLA-B*48:01 = assay: as above; conditions: source organism: West Nile virus
# HLA-A*02:12 [18] = assay: IEDB peptide-MHC binding, purified MHC/competitive/fluorescence; filed as Kd, often an IC50 or EC50 that approximates it; ≥ and ≤ were set here for values at or beyond the usual limits of such assays; conditions: source organism: Pseudomonas aeruginosa PACS2
# HLA-A*03:01 [19] = assay: as above
# HLA-A*26:01 = assay: as above
# HLA-A*69:01 [20] = assay: as above
# HLA-B*18:01 [21] = assay: as above
# HLA-B*27:03 = assay: as above
# HLA-B*39:01 = assay: as above
# HLA-B*46:01 [22] = assay: as above
# HLA-B*51:01 = assay: as above; conditions: source organism: Pseudomonas aeruginosa PACS2
# HLA-B*57:01 [23] = assay: as above; conditions: source organism: Pseudomonas aeruginosa PACS2
# HLA-A*02:03 = assay: IEDB peptide-MHC binding, purified MHC/direct/fluorescence; filed as Kd, often an IC50 or EC50 that approximates it; ≥ and ≤ were set here for values at or beyond the usual limits of such assays; conditions: source organism: Zaire ebolavirus
# HLA-A*02:11 = assay: as above; conditions: source organism: Zaire ebolavirus
# HLA-A*02:12 [24] = assay: as above; conditions: source organism: Zaire ebolavirus
# HLA-A*02:16 = assay: as above; conditions: source organism: Zaire ebolavirus
# HLA-A*02:19 = assay: as above; conditions: source organism: Zaire ebolavirus
# HLA-A*68:02 = assay: as above; conditions: source organism: Zaire ebolavirus
# HLA-A*11:01 [25] = assay: IEDB peptide-MHC binding, purified MHC/competitive/fluorescence; ≥ and ≤ were set here for values at or beyond the usual limits of such assays
# [26] = source organism: Yellow fever virus
# [27] = source organism: Zaire ebolavirus
# [28] = source organism: Shigella flexneri 5 str. 8401
# [29] = source organism: West Nile virus
# [30] = source organism: Pseudomonas aeruginosa PACS2
# [31] = source organism: Vaccinia virus WR
# [32] = source organism: Vaccinia virus
# [33] = source organism: Sudan ebolavirus
# [34] = source organism: Yersinia pestis Antiqua
sequence,measurement,setting,value
GMIAGWHGY,pKd,HLA-A*29:02 [1]; source organism: Influenza B virus (B/Victoria/2/1987),8.80
GSRAYRNAL,pKd,HLA-A*01:01; [26],≤ 4.70
same,pKd,HLA-A*02:01 [2]; [26],≤ 4.70
same,pKd,HLA-A*03:01 [3]; [26],≤ 4.70
same,pKd,HLA-A*11:01 [4]; [26],≤ 4.70
same,pKd,HLA-A*29:02 [5]; [26],≤ 4.70
same,pKd,HLA-A*31:01; [26],≤ 4.70
same,pKd,HLA-A*69:01 [6]; [26],≤ 4.70
same,pKd,HLA-B*08:02; [26],≤ 4.70
same,pKd,HLA-B*15:01 [7]; [26],≤ 4.70
same,pKd,HLA-B*18:01 [8]; [26],≤ 4.70
same,pKd,HLA-B*27:05; [26],≤ 4.70
same,pKd,HLA-B*40:01; [26],≤ 4.70
same,pKd,HLA-B*44:02; [26],≤ 4.70
same,pKd,HLA-B*46:01 [9]; [26],≤ 4.70
same,pKd,HLA-B*57:01 [10]; [26],≤ 4.70
same,pKd,HLA-B*58:01 [11]; [26],≤ 4.70
GYYSTTIRY,pIC50,HLA-A*03:01 [12]; [27],≤ 3.52
same,pIC50,HLA-A*24:02; [27],6.08
same,pIC50,HLA-B*15:01 [13]; [27],5.34
HILRSQGPF,pIC50,HLA-A*02:01 [14]; [27],≤ 3.29
same,pIC50,HLA-A*24:02; [27],5.24
same,pIC50,HLA-B*15:01 [13]; [27],4.89
HLTPAQLSM,pKd,HLA-A*02:01 [15]; [28],6.52
same,pKd,HLA-B*15:01 [16],5.75
same,pKd,HLA-B*58:01 [17]; [28],≤ 5.30
KCRVKMEKL,pKd,HLA-A*01:01; [29],≤ 4.70
same,pKd,HLA-A*02:01 [2]; [29],≤ 4.70
same,pKd,HLA-A*03:01 [3]; [29],≤ 4.70
same,pKd,HLA-A*11:01 [4]; [29],≤ 4.70
same,pKd,HLA-A*29:02 [5]; [29],≤ 4.70
same,pKd,HLA-A*31:01; [29],≤ 4.70
same,pKd,HLA-A*69:01 [6]; [29],≤ 4.70
same,pKd,HLA-B*07:02,≤ 4.70
same,pKd,HLA-B*08:01,≤ 4.70
same,pKd,HLA-B*08:02; source organism: West Nile virus strain PTRoxo,≤ 4.70
same,pKd,HLA-B*15:01 [7]; [29],≤ 4.70
same,pKd,HLA-B*18:01 [8]; [29],≤ 4.70
same,pKd,HLA-B*27:05; [29],≤ 4.70
same,pKd,HLA-B*40:01; [29],≤ 4.70
same,pKd,HLA-B*44:02; [29],≤ 4.70
same,pKd,HLA-B*46:01 [9]; [29],≤ 4.70
same,pKd,HLA-B*48:01,≤ 4.70
same,pKd,HLA-B*57:01 [10]; [29],≤ 4.70
same,pKd,HLA-B*58:01 [11]; [29],≤ 4.70
KLIDVSKCI,pKd,HLA-A*02:01 [15]; [30],8.07
same,pKd,HLA-A*02:12 [18],7.96
same,pKd,HLA-A*03:01 [19]; [30],≤ 4.70
same,pKd,HLA-A*26:01; [30],≤ 4.70
same,pKd,HLA-A*29:02 [1]; [30],≤ 4.70
same,pKd,HLA-A*69:01 [20]; [30],≤ 4.70
same,pKd,HLA-B*18:01 [21]; [30],≤ 4.70
same,pKd,HLA-B*27:03; [30],≤ 4.70
same,pKd,HLA-B*39:01; [30],≤ 4.70
same,pKd,HLA-B*46:01 [22]; [30],≤ 4.70
same,pKd,HLA-B*51:01,≤ 4.70
same,pKd,HLA-B*57:01 [23],≤ 4.70
KTNDFAPAW,pKd,HLA-A*02:03,≤ 4.70
same,pKd,HLA-A*02:11,≤ 4.70
same,pKd,HLA-A*02:12 [24],≤ 4.70
same,pKd,HLA-A*02:16,≤ 4.70
same,pKd,HLA-A*02:19,≤ 4.70
same,pKd,HLA-A*68:02,≤ 4.70
same,pKd,HLA-B*15:01 [7]; source organism: Ebola virus - Gabon (1994-1997),≤ 5.30
same,pKd,HLA-A*02:01 [15]; [27],≤ 4.70
same,pKd,HLA-A*26:01; [27],≤ 4.70
same,pKd,HLA-A*69:01 [20]; [27],≤ 4.70
same,pKd,HLA-B*18:01 [21]; [27],≤ 4.70
same,pKd,HLA-B*27:03; [27],≤ 4.70
same,pKd,HLA-B*39:01; [27],≤ 4.70
same,pKd,HLA-B*46:01 [22]; [27],≤ 4.70
same,pKd,HLA-B*58:01 [17]; [27],8.89
LMNFHQKKN,pIC50,HLA-A*02:01 [14]; [27],≤ 3.91
same,pIC50,HLA-A*03:01 [12]; [27],≤ 3.48
same,pIC50,HLA-B*15:01 [13]; [27],≤ 3.58
LSAIALGVA,pIC50,HLA-A*02:01 [14]; [27],4.59
same,pIC50,HLA-B*15:01 [13]; [27],≤ 3.85
MSNGEHVPF,pIC50,HLA-A*24:02; [31],5.26
same,pIC50,HLA-B*15:01 [13]; [31],4.31
RMNSNQVCI,pIC50,HLA-A*02:01 [14]; [32],5.46
same,pIC50,HLA-A*03:01 [12]; [32],≤ 3.93
same,pIC50,HLA-A*24:02; [32],7.09
same,pIC50,HLA-B*15:01 [13]; [32],4.74
RSTKGGQQK,pIC50,HLA-A*03:01 [12]; [27],5.25
same,pIC50,HLA-A*11:01 [25]; [27],5.74
RTYTILNRK,pIC50,HLA-A*03:01 [12]; [33],5.98
same,pIC50,HLA-A*11:01 [25]; [33],6.79
same,pIC50,HLA-A*24:02; [33],4.37
SAYERGLRY,pKd,HLA-A*03:01 [19]; [34],7.27
same,pKd,HLA-B*58:01 [17]; [34],≤ 4.70
VGKTSQVPK,pIC50,HLA-A*03:01 [12]; source organism: Variola virus,4.87
same,pIC50,HLA-A*11:01 [25]; source organism: Variola virus,5.81
VVTNSTLEV,pIC50,HLA-A*02:01 [14]; [33],5.10
same,pIC50,HLA-B*15:01 [13]; [33],≤ 3.94
WMNHHAITY,pKd,HLA-A*29:02 [1]; source organism: Orientia tsutsugamushi str. Boryong,≥ 10.00
